Columns and labels:
[1] = molecular target: recombinant human activated protein C (5 nM), Novo Nordisk A/S (human, UniProt P04070); assay: cell-based or functional assay
[2] = molecular target: T1, human Factor XIIa (30 nM) (human, UniProt P00748); assay: cell-based or functional assay
T1 sequence 1: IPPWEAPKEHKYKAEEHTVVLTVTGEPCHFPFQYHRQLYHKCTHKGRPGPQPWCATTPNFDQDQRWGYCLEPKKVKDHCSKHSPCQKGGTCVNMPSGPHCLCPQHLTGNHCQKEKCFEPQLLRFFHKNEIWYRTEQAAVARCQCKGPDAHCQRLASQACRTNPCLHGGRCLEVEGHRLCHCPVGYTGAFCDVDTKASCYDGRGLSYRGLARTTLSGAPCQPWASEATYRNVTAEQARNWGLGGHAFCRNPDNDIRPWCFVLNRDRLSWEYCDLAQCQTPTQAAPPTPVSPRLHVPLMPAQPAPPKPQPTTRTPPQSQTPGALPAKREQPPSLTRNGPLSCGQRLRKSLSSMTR
T1 sequence 2: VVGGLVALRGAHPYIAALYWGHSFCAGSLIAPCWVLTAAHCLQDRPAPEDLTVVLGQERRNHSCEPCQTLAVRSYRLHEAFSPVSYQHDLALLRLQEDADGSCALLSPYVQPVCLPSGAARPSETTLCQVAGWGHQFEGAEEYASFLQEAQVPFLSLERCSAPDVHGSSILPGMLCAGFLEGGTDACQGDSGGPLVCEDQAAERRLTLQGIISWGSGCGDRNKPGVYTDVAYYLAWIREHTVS

human Factor XIa (1 nM) = human Factor XIa (1 nM) (human, UniProt P03951); assay: cell-based or functional assay
human Factor Xa (3 nM) = human Factor Xa (3 nM) (human, UniProt P00742); assay: cell-based or functional assay
[3] = molecular target: recombinant human Factor VIIa (300 nM), Novo Nordisk A/S (human, UniProt P08709); assay: cell-based or functional assay
bovine trypsin = bovine trypsin (bovine, UniProt P00760); assay: affinity chromatography of yeast supernatant on bovine trypsin coupled to CNBr-activated Sepharose

B1: Kunitz-type inhibitor domain of the amyloid protein precursor (other)
chain: EVCSEQAETGPCRAMISRWYFDVTEGKCAPFFYGGCGGNRNNFDTEEYCMAVCGSA
[1]
  % Inhibition: 1%
[2]
  % Inhibition: 8%
Human Factor XIa (1 nM)
  % Inhibition: 100%
Human Factor Xa (3 nM)
  % Inhibition: 29%
[3]
  % Inhibition: 7%
Bovine trypsin
  binding result: binds
